Measurements as given in the DeepSol protein solubility set.

assay: soluble on expression in E. coli; label from the status in PepcDB or PDB records

| Sequence | soluble on expression in E. coli |
| --- | --- |
| MPKTEDKYLPLMSKEKIEKALAFHKSFPQYSETPLAELNHMAAYLGLNDFFVKDESYRFGLNAFKVLGGSFAMANYIAEKLKKDVSELTYDELTSDQLRSAFGQATFFTATDGNHGRGVAWAANKLGQKSVVLMPKGSTQTRKENIEKEGATVTIEEVNYDECVRMANKMAEETENGVMVQDTAWDGYEKIPTWIMQGYGTMALEASQQLRKFGSERPSHVFVQAGVGSLAGAVIGYFANAFPENPPIMVVVEAQAADCLYQSAIKKDGEIRFVDGDLQTIMAGLACGEPNTISFDILKNHTSFFVSAPDWVSEKGMRMLGAPLKGDPQVVSGESGAVAMGLVATVMQDPDYQELHEALQLDETSNVLMFSTEGDTDPDNYKKILWR | not soluble |
| MTGSCSDLLGFQYNNTVISSATLQETGTLTVANKPIGAHCLVKGYMDQHVSPVDGQTYQIGFEMRLPIDWNGRFLYQGNGGTDGNLVPATGQVGSGGPLTNALHDGFAIISSDAGHNASQNPMFGLDPQARINYGYGAITKLTPMAKNLIKAAYGKLPDRSYAGGTSNGGRHAMIAATRLGDQYDGILASTPGFHLPRAAAAQLYTAQQLRRVATDENDLSTALTLPERKVLAKAILDRCDALDGVTDGLVQDVEACRTAFDIHKHVTVCSSTRDGTCLSTEQIDVLANIYRGPVNSAGQALYATQPFDPGLVGSNWASWKFESSVGTARDPVAVGILFQVPPDPTVTQNSRQFALNFNFDTDYPKLSATNDVYTESSMSFMMPPDELNLDKLRNHGGKMIVVQGTADGVFSVDDTQNWYDQLLQHYKNDAKGTAPEFARFFRVPGMNHTRDGIATDQFDALTALVNWVEYGQAPDKIIATARGAGNPSGQVNTEIPQDWAPDRTRPLCPYPLIARYNGQGDLEHHHHHH | not soluble |
| MVEKIERKSLAEQVYDQIKAEITSGAWKIGERIPKEADLMTQFGISRNTLREAIRALAHIGLLETKQGDGTFVRNNSELHAIMQKRVRESSVQEILEMRHALDREAVILACERRTDEDLKMLKKYKQLCYLANKDNDVTAFVKADSALHLTIVKAAHNDLLLDMYVNILEEIQFSITSTTEMNPAVNKHNGHATLVSAIEKRDKEGAAHEVTEYITLFKQIAAKNGDNK | not soluble |
| MATNKERLFAAGALGPGSGYPGAGFPFAFPGALRGSPPFEMLSPSFRGLGQPDLPKEMASLSVETQSTSSEEMVPSSPSPPPPPRVYKPCFVCNDKSSGYHYGVSSCEGCKGFFRRSIQKNMVYTCHRDKNCIINKVTRNRCQYCRLQKCFEVGMSKEAVRNDRNKKKKEVKEEGSPDSYELSPQLEELITKVSKAHQETFPSLCQLGKYTTNSSADHRVQLDLGLWDKFSELATKCIIKIVEFAKRLPGFTGLSIADQITLLKAACLDILMLRICTRYTPEQDTMTFSDGLTLNRTQMHNAGFGPLTDLVFAFAGQLLPLEMDDTETGLLSAICLICGDRMDLEEPEKVDKLQEPLLEALRLYARRRRPSQPYMFPRMLMKITDLRGISTKGAERAITLKMEIPGPMPPLIREMLENPEMFEDDSSQPGPHPNASSEDEVPGGQGKGGLKSPA | soluble |
| MTPNGHHFRTVIYNAAAVGNLQRIKVFTINSRNDRQWIIDCFNSDQDGRYPLVIAARNGHANVVEYLLEIGADPSVRGVVEFDNENIQGTPPLWAASAAGHIEIVKLLIEKANADVNQATNTRSTPLRGACYDGHLDIVKYLLEKGADPHIPNRHGHTCLMIASYRNKVGIVEELLKTGIDVNKKTERGNTALHDAAESGNVEVVKILLKHGSVLMKDIQGVDPLMGAALSGFLDVLNVLADQMPSGIHKRDALKLLGSTLLDKKMDAMSAMNCWKQSMEVPLHADDLRLVREMETFFEPQEVYEYQREAQNIAQVELLDGNIEAQRMQALVIRERILGGAHTDVHYYLRFRGAVYCDMGQMNRCYDLWKHALELQQKHFAPLYYGTITTLQSFHETFSMSLNDFVNNHHANRNLRVRSSWVKYVFNGVCLELERAAAWTGAPLLEDTECCGKERCQHATEESEYKKLVYVAVHLVNVLERLSLPSAHIDDSDEEKEPKADVRRLMIVCHELHIPLLHHTLEERIPDSNSAELGLPKAAVLEQLLELDLDVNATDKNNDTPMHILLRAREFRKSLVRALLVRGTWLFARNRHGDVVLNVMKRMKALNHANFDDLPLGRHITLAGLVANAMRVKYPKKFVGVEEQMPLELRRFYLAH | not soluble |
| MDDRGGSFVAVRRISQGLERGSVYHSSSAEVVAGSAAWLGRGLSCVCVQGRDGDPRPSFDLTPAQEECLQRLQSRIDVAYDSSIPQHQEALKDLWKLAFPEEELHGIVSDQWKEMGWQGKDPSTDFRGGGFISLENLLYFARKFPKSFHGLLRKQVGDRSVWEYPFAVAGINITFMLIQMLDLEAVNESAFDLLYCIAFKLMDQQWLSMRASYMEFNTVMKSTRRQLEREIMIEDITSLEDLPSYSLLSQ | soluble |
| MGSDKIHHHHHHMIFKKMINEFKMEIKNNKSKINPIDVYRYSIFFRNYIESTAEDALKNGINLSLLEKSCLKESSKSLLGLKVQLKEALLEAMISYRFNGAGYILVKPKSEDEDLSKKVNSELPTGFKYLDFQKIINKRDSSYVEYLSNSKDPDDFERARVVKIDKSRVIIYENYDYVLGEQEPAYTQSLLLNICLLEQIYLEIEKRIRNYNFLFYKDEHLVGLVESLEIAKEEINVLANSKGKIFSTFFKAQEPNKSFQALSSVSDELSRELSKIKNTLNNDGIFYTASENARLEVIKYDLEFLKDAFELVKAKIGADTKEPLTRSFNEQVKGLGSSGKGDKSNYYDYLKGVQESVANACNLKLNKYYRLNMKFNELEALSYEQRLQKDNLLLDVYFKYLELIKNENLSDKAKENLKEQLSLVI | not soluble |
| MGSSHHHHHHSSGRENLYFQGMTTAKRDTYTPETLLSVAVQVFIERGYDGTSMEHLSKAAGISKSSIYHHVTGKEELLRRAVSRALDELFGILDEEHARVGTAAERLEYVVRRMVEVLMAELPYVTLLLRVRGNTGTERWALERRREFDHRVAALLKDAAAEGDVRADVEVRLATRLVFGMINSIVEWYRPEGPDGRSDASGASGVSGAGEREVVDAVARLVFGGLRKAS | soluble |
| MAKAAKRFRTPSTTRVLYVRHAHAHGRQTWGGDDNKRPLDKKGRRQAEMLVPMLLPFKPTAIYSAVPDRCQATALPLADELGLDVSVNRLFGDDAWETDPEACKKRFTDVVAQGGVPMIVGQGDIIPEMIKWFSENGTLPIDEKIKAKKGSVWVLSFHDGVFTGADYLEHHHHHH | not soluble |
| MKKKSNLTLFMKQLIRSLKEEERFSTAHIYQSTLNAFMLFCKTDAIRFNQMERSRLKQFENHLRNKGCTWNTVSTYMRTLRSIYNKAVDDGLAEEKPRLFRHVYTGVKANTKRALDAKDMSKLLSASLPRPLPQSMKESRAWITLMFLLRGMPFVDLAHLRKTDLQDSVISYRRHKTGALLTVEIPPAAMNLIKRYQNTDSASPYLLPILSGNRKSEEEYAEYQHALRKLNYDLKQLAVYCGIKLNVSSYTSRHTWATLAKYCHFSEQLICDALGHSSTKVTETYLKSFKNDELDRANKVIINHINISI | not soluble |
| MKKFDVAIVGGGLAGLTASIYLAKAGRKVIVLEKSSRFGGRGMTINKNGICMNLGAHALYRGGAAFLTFNELGMNLPGGIPSTKAHGIWKGDIFTIPTDFRSILSTPLLSWSAKVQFSRLMILLGNLDVGEVPKMSLTTWAEHEIKDPMVRNIFYALCRTTTYTFAPTIQLASSVLKQIQLSIKEGVFYVDGGWETIITKLRDIANHVGVQFLSKKHVLEIEHYEDKQRIYCFDDEVFEVGTVIVTTPPKEACNIIKGAEGTSLQRWSEQSIPVTVTALDIGLRRLPNPTHQFALGLDQPIFFTNQSRAAKLSDDGSIAVSLIKYQNPALEMKHIHEDKGQLESTMDLLHPNWKREVVAQQYLPTIKVVYDFPHINRVETPGPNIPEMPGVYVAGDWAGHDEILADAAVASGKRAALHILKQLESEAVHHGNGAIILEHHHHHH | not soluble |
| DEAMVKIEKQEIVEHLSENSLLVQLKYAGASTDEPLLNELYKHYQVMANILYGNIEILDGTPVGELVVVLSGEKAALAGAQEAIRQAGVQLKVLKGVQ | not soluble |
| GSMALTQVETEIVPVSVDGETLTVEAVRRVAEERATVDVPAESIAKAQKSREIFEGIAEQNIPIYGVTTGYGEMIYMQVDKSKEVELQTNLVRSHSAGVGPLFAEDEARAIVAARLNTLAKGHSAVRPIILERLAQYLNEGITPAIPEIGSLGASGDLAPLSHVASTLIGEGYVLRDGRPVETAQVLAERGIEPLELRFKEGLALINGTSGMTGLGSLVVGRALEQAQQAEIVTALLIEAVRGSTSPFLAEGHDIARPHEGQIDTAANMRALMRGSGLTVEHADLRRELQKDKEAGKDVQRSEIYLQKAYSLRAIPQVVGAVRDTLYHARHKLRIELNSANDNPLFFEGKEIFHGANFHGQPIAFAMDFVTIALTQLGVLAERQINRVLNRHLSYGLPEFLVSGDPGLHSGFAGAQYPATALVAENRTIGPASTQSVPSNGDNQDVVSMGLISARNARRVLSNNNKILAVEYLAAAQAVDISGRFDGLSPAAKATYEAVRRLVPTLGVDRYMADDIELVADALSRGEFLRAIARETDIQLR | soluble |
| MSELLTTYRPIKILLQLDPNLGNNSYNGRVKIDYEFTGETSEIKIQTSRDFQWTSVRLATFYDFNEGCPVYASVDCENYVHDAESEILTLPLGNPLTPETTENGFYIELEWTGPINPQGETTGLYAIDESTIEANMKDGNAHKVFPCYEGGVSAKFWLTVITDERTRVETNMDDAGHEEFEGRVKNNFLKEEELTIEDVYIYVTPIIDME | not soluble |
| MSEEIISKKPSKPQASRKGKRAWRKNIDIQEIEQNLQDKRDEEIVLGKEVTDDFVIDDTPSSKSGKLPKKLKTKEILTNKSKIPALTNQRHQKKGENTIQGVKKTDLLRLIQLNGGKFKSEDKYVNRLEQDGIVNGSSQDLWDDTDNNEKKKIPDFMKSTAEVTKASVVPKTLKVNPIKITSNELTDKKIHAGKSYNPSLESWKELINQEYDIEYKRELTRQQIEEHRNKIKELMITLDDNMLSDSDDDEDDEDNDKVEEEEQLNANGEKDYSLSINKPNKIKIKTKTKRNKELKHKERVKLEQEIKDLKKQLKDLSNLDEILEKQAVKDQSQPNEKKRKRREKLFKYSLVETPLEVKLSDELSGNLKNLKPEGNLYYDQMLSLQSSGKIESRVPVNKKRKYTKKITEKWTYKDFK | not soluble |
| MAFIESWAKRTWLVPPQMQLYVDYKIKVTEILTNYTSIEEIHSYSIDESFLDITESLNFFYPDIRNRYEQMNLITLDLQREILDKLGLYVTVGMGDNPLLAKLAMDNYAKHNQNMRALIRYLEHHHHHH | not soluble |
| MSISKDSRIAIIGAGPAGLAAGMYLEQAGFHDYTILERTDHVGGKCHSPNYHGRRYEMGAIMGVPSYDTIQEIMDRTGDKVDGPKLRREFLHEDGEIYVPEKDPVRGPQVMAAVQKLGQLLATKYQGYDANGHYNKVHEDLMLPFDEFLALNGCEAARDLWINPFTAFGYGHFDNVPAAYVLKYLDFVTMMSFAKGDLWTWADGTQAMFEHLNATLEHPAERNVDITRITREDGKVHIHTTDWDRESDVLVLTVPLEKFLDYSDADDDEREYFSKIIHQQYMVDACLVKEYPTISGYVPDNMRPERLGHVMVYYHRWADDPHQIITTYLLRNHPDYADKTQEECRQMVLDDMETFGHPVEKIIEEQTWYYFPHVSSEDYKAGWYEKVEGMQGRRNTFYAGEIMSFGNFDEVCHYSKDLVTRFFV | soluble |
| MSLIQEYVPGKQVTLAHIIASPNKEIYTKLGLPEGTSNALGILTITPSEAAIIAVDIATKSGDIQIGFIDRFSGSVVISGDVSSVEAALQAVIEGLQQILNFSVTCKITRTEGGSHHHHHH | soluble |
